Patent US20230257458A1 (SUNSHINE LAKE PHARMA, published 2023)

Key:
[1] = target: T1, recombinant IL-6 (Sinobiological-10395-HNAE) (UniProt P05231 30-212); assay: ELISA, cytokine coated
[2] = target: T2, recombinant IL-27 (R&D systems, 2526-IL-010) (UniProt Q8NEV9 29-243; Q14213 21-229); assay: ELISA, cytokine coated
T2 sequence (looked up) 1: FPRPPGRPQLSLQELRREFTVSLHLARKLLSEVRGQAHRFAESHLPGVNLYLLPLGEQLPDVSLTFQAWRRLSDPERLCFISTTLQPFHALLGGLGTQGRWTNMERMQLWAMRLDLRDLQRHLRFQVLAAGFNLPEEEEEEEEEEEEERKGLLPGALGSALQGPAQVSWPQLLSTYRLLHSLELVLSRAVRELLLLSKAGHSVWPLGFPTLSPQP
T2 sequence (looked up) 2: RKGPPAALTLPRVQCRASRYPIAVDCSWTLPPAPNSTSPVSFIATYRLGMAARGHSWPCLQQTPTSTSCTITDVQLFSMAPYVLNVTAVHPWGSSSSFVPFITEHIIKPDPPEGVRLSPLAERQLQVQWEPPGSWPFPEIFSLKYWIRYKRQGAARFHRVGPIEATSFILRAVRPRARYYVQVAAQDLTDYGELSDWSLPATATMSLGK

[3] = target: T3, recombinant OSM (Genscript-z03132) (UniProt P13725 26-234, limits assumed); assay: ELISA, cytokine coated
T3 sequence (looked up): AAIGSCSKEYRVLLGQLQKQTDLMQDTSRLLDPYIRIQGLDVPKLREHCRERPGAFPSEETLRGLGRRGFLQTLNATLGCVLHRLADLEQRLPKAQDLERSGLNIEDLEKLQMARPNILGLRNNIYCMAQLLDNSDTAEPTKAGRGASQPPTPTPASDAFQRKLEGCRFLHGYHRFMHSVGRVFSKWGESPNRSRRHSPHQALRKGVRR

[4] = target: T4, recombinant CLC (R&D systems, 962-CL-050) (UniProt Q9UBD9 28-225); assay: ELISA, cytokine coated
T4 sequence (looked up): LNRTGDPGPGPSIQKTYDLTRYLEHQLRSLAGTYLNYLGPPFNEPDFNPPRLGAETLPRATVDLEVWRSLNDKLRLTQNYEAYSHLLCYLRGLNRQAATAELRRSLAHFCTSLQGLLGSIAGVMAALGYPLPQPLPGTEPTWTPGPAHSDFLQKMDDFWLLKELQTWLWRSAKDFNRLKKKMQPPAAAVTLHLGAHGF

[5] = target: T5, recombinant LIF (Peprotech, 300-05) (UniProt P15018 23-202); assay: ELISA, cytokine coated
T5 sequence (P15018 23-202 limits assumed): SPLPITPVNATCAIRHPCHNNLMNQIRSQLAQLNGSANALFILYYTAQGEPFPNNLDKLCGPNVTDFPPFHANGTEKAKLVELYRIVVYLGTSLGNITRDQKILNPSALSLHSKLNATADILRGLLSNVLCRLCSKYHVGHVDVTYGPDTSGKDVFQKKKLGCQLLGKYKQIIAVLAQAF

[6] = target: T6, recombinant IL-31 (Peprotech, 200-31) (UniProt Q6EBC2 24-164); assay: ELISA, cytokine coated
T6 sequence (looked up): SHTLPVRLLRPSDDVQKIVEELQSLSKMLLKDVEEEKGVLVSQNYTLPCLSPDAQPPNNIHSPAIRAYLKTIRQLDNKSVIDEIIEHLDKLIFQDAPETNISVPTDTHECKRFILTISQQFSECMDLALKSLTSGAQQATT

[7] = target: T7, recombinant CNTF (R&D systems, 257-NT-010) (UniProt P26441 2-200); assay: ELISA, cytokine coated
T7 sequence (looked up): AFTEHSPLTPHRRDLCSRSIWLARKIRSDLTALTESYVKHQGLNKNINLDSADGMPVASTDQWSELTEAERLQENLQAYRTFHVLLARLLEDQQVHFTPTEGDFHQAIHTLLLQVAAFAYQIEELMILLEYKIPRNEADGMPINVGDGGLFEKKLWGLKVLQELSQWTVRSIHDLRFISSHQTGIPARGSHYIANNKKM

[8] = target: T8, recombinant CT-1 (R&D systems, 612-CD-010) (UniProt Q16619 2-201, limits assumed); assay: ELISA, cytokine coated
T8 sequence (looked up): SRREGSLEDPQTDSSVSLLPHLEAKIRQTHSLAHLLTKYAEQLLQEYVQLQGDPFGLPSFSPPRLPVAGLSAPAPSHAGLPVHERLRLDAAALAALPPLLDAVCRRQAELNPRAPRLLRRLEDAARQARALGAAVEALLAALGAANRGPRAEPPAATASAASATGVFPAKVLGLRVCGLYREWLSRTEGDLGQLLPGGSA

[9] = target: T1, recombinant IL-6 …; assay: ELISA, cytokine coated; remark: listed apart in the source
[10] = target: T2, recombinant IL-27 (R&D systems, …); assay: ELISA, cytokine coated; remark: listed apart in the source
[11] = target: T3, recombinant OSM (Genscript-z03132); assay: ELISA, cytokine coated; remark: listed apart in the source
[12] = target: T4, recombinant CLC (R&D systems, …); assay: ELISA, cytokine coated; remark: listed apart in the source
[13] = target: T5, recombinant LIF (Peprotech, 300-05); assay: ELISA, cytokine coated; remark: listed apart in the source
[14] = target: T6, recombinant IL-31 (Peprotech, 200-31); assay: ELISA, cytokine coated; remark: listed apart in the source
[15] = target: T7, recombinant CNTF (R&D systems, …); assay: ELISA, cytokine coated; remark: listed apart in the source
[16] = target: T8, recombinant CT-1 (R&D systems, …); assay: ELISA, cytokine coated; remark: listed apart in the source
[17] = target: T9, recombinant IL-11 (LSBio, LS-G132887-10) (UniProt P20809 22-199); assay: ELISA, cytokine coated
T9 construct: also called IL-11 cytokine
T9 sequence (looked up): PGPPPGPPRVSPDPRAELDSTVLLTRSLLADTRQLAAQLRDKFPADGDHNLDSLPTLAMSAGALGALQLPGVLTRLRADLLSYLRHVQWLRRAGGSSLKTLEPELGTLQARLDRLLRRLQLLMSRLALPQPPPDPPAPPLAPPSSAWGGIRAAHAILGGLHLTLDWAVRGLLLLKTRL

IL-11 protein [18] = target: T10, IL-11 protein (UniProt P20809 22-199, limits assumed); assay: ELISA, monoclonal hybridoma supernatant on IL-11
T10 construct: also called IL-11 antigen
T10 sequence (looked up): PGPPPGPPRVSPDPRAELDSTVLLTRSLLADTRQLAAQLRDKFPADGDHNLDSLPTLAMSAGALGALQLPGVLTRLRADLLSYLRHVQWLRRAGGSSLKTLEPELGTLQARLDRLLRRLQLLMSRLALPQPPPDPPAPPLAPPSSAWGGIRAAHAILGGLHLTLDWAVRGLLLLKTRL
From the text: (§1) Cell lines with high secretion of specific antibody were selected for expanded culture and cryopreservation.

[19] = target: T11, recombinant human protein antigen hu-IL-11-His tag (human, UniProt P20809 22-199); assay: BLI, IL-11 (His tag) on Ni-NTA sensor, antibody as analyte
T11 construct: Expressed in CHO, Ni column and Superdex75; not shown: His tag
T11 sequence (looked up): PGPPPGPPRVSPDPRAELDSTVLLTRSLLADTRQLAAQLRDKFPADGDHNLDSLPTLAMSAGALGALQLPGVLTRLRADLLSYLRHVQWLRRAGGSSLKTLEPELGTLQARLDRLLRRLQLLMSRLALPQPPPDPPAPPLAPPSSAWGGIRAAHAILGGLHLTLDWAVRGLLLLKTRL
Protocol: Bio-Layer Interferometry (BLI) was used for binding affinity determination. […] The analytes were diluted in 7 concentration gradients, the binding time was 60 s and the dissociation time was 1000 s. The buffer was 20 mM PBS, 0.15M NaCl, 0.1% BSA, 0.05% Tween 20, pH 7.

IL-11 protein [20] = target: T10, IL-11 protein; assay: flow competition: IL-11 + antibody on IL-11R cells; lower = more blocking
From the text: as §1

IL-11-Fc protein = target: T12, IL-11-Fc protein (UniProt P20809 22-199, limits assumed); assay: flow competition: IL-11-Fc + antibody gradient on membrane-IL-11R CHO cells; 3-6A4 antibody
T12 construct: also called IL-11 recombinant protein with Fc tag; not shown: Fc tag
T12 sequence (looked up): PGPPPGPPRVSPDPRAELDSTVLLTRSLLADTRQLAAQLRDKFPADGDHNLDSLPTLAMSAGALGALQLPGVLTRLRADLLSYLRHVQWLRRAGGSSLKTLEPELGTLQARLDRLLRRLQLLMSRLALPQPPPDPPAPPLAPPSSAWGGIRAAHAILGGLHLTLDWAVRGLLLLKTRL
From the text: The secondary antibody used in the detection was a secondary antibody conjugated with a FITC fluorophore (Goat-anti-Fc-FITC) (Abcam, ab98529).

B1: 3-6A4 (antibody, human IgG1, kappa, V domains shown)
VH: QIQLVQSGPELKKPGETVKISCKASGYTFTTNGINWVKQAAGKGLKWMGWINTNTGEPTNAEELKGRFAFSLETSASTAYLQINNLKNEDAAIYFCAREGAFGLDYWGQGTSVTVSS
VL: SIVMTQSPKFLLVSAGDRVIITCKASQSVSNDVVWYQQKPGQSPKLLIYYGSHRNTGVPTRFTGSGYGTDFTFTISTVQAEDLAVYFCQQDFFSPWTFGGGTKLEIKR
notes: also called 3-6A4 antibody; 3-6A4 mAb
B1: no binding [1]; no binding [2]; no binding [3]. B1: no binding [4]; no binding [5]; no binding [6]. The binding result [7] was “no binding”, the binding result [8] was “no binding” and the OD450 nm [9] was 0.039. For the same binder, the OD450 nm [10] was 0.035, the OD450 nm [11] was 0.102 and the OD450 nm [12] was 0.042. It also gave an OD450 nm [13] of 0.084, an OD450 nm [14] of 0.088 and an OD450 nm [15] of 0.064. The OD450 nm [16] was 0.041, the OD450 nm [17] was 1.88 and the OD450 (IL-11 protein [18]) was 1.58. The Kd [19] was 0.0393 nM, the koff [19] was 4.16e-05 s⁻¹ and the kon [19] was 1.06e+06 M⁻¹ s⁻¹. The “FITC Mean” value (IL-11 protein [20]) was 3040 and the IC50 (IL-11-Fc protein) was ~7 mg/L.
